The source of these data is paper PMC5218534, “Structural and biochemical analyses of the DEAD-box ATPase Sub2 in association with THO or Yra1” (eLife, 2017).

Data set [1] deals with T1, Sub2 (full-length) (Saccharomyces cerevisiae, UniProt Q07478).
T1 construct: full-length, expressed in E. coli BL21-CodonPlus(DE3)-RIL with N-terminal GST tag removed by TEV
T1 sequence (Q07478 1-446): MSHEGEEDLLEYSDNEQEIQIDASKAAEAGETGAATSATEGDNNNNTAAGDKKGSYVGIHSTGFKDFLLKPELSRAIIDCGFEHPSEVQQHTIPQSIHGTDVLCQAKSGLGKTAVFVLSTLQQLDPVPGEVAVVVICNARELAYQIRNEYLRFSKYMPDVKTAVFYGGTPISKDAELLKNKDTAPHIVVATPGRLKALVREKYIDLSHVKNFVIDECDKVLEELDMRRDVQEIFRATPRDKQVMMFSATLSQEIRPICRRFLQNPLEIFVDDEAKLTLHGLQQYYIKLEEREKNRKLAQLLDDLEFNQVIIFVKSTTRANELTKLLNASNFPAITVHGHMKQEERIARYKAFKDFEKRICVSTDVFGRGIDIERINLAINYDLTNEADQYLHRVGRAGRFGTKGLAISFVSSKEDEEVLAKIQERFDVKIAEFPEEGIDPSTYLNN
Nature of the data set: NADH enzyme-coupled ATPase assay. In kind it is biochemical. The following applies: 1 mM ATP; 10 µM poly(U) 20-mer RNA; 2 mM MgCl2, pH 7.0, 37 °C; no THO or Yra1.

Data set [2] concerns the target T2, DEAD-box ATPase Sub2, full length (S. cerevisiae, UniProt Q07478 1-446).
T2 sequence (looked up): T1 sequence (Q07478 1-446)
Nature of the data set: cell-based or functional assay.

Data set [3] deals with THO core complex (THO*) (S. cerevisiae | S. bayanus) (UniProt P53552).
Data set [4] deals with T3, Yra1 C-box (UniProt Q12159 208-226).
T3 chain: AKKSLEDLDKEMADYFEKK
Description: EMSA; C-box without Sub2; EMSA: 20 nM RNA, 20 mM HEPES pH 7.0, 100 mM NaCl, 1 mM TCEP, 2 mM MgCl2, 5% glycerol, 0.5 U/ul SUPERase-In, 1 mM nucleotide as indicated; room temperature, 10 min; 5% native PAGE, 45 mM Tris-borate. The following applies: label: 5' Alexa488; single strand. On the technique in general: In EMSA bound probe runs differently from free probe, usually more slowly.

Data set [5] has as its target T4, Yra1-C (UniProt Q12159 185-226).
T4 chain: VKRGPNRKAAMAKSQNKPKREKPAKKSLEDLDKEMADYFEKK
Nature of the data set: EMSA; Yra1-C without Sub2; EMSA: 20 nM RNA, 20 mM HEPES pH 7.0, 100 mM NaCl, 1 mM TCEP, 2 mM MgCl2, 5% glycerol, 0.5 U/ul SUPERase-In, 1 mM nucleotide as indicated; room temperature, 10 min; 5% native PAGE, 45 mM Tris-borate. To be noted: protein: recombinant; tags: N-terminal GST removed by TEV; label: 5' Alexa488; single strand.

Data set [6] addresses T5, Sub2 (UniProt Q07478 1-446).
T5 sequence: T1 sequence (Q07478 1-446)
Description: EMSA; 1 mM ATP-gamma-S, 2 mM MgCl2; EMSA: 20 nM RNA, 20 mM HEPES pH 7.0, 100 mM NaCl, 1 mM TCEP, 2 mM MgCl2, 5% glycerol, 0.5 U/ul SUPERase-In, 1 mM nucleotide as indicated; room temperature, 10 min; 5% native PAGE, 45 mM Tris-borate. To be noted: protein: recombinant; tags: N-terminal GST removed by TEV; label: 5' Alexa488; single strand.

The target in data set [7] is T6, Sub2;Yra1-C (Saccharomyces cerevisiae?;Saccharomyces …, UniProt Q07478;Q12159 1-446;185-226, |).
T6 sequence 1: T1 sequence (Q07478 1-446)
T6 sequence 2: T4 chain
Description: EMSA; 1 mM ATP-gamma-S, 2 mM MgCl2; Yra1-C promotes Sub2-RNA binding, trimeric complex; EMSA: 20 nM RNA, 20 mM HEPES pH 7.0, 100 mM NaCl, 1 mM TCEP, 2 mM MgCl2, 5% glycerol, 0.5 U/ul SUPERase-In, 1 mM nucleotide as indicated; room temperature, 10 min; 5% native PAGE, 45 mM Tris-borate. To be noted: protein: recombinant;recombinant; tags: N-terminal GST removed by TEV;N-terminal GST removed by TEV; copies: 1;1; label: 5' Alexa488; single strand.

Data set [8] deals with T7, Sub2 (62-446);Yra1-C* (Saccharomyces cerevisiae?;Saccharomyces …, UniProt Q07478;Q12159 62-446;200-226, |).
T7 sequence 1: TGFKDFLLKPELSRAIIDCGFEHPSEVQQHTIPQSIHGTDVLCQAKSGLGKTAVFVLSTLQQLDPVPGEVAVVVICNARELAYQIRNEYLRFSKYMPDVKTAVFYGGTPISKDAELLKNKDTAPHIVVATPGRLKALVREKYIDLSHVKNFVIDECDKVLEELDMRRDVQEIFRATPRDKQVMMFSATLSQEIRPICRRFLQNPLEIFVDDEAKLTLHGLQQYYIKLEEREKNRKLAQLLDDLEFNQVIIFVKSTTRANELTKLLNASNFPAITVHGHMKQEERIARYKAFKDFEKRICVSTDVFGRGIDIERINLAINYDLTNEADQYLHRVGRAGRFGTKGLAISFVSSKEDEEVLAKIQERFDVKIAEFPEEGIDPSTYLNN
T7 sequence 2: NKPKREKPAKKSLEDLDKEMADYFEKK
Description: X-ray crystallography 2.6 A; ADP-BeF3; EMSA: 20 nM RNA, 20 mM HEPES pH 7.0, 100 mM NaCl, 1 mM TCEP, 2 mM MgCl2, 5% glycerol, 0.5 U/ul SUPERase-In, 1 mM nucleotide as indicated; room temperature, 10 min; 5% native PAGE, 45 mM Tris-borate. To be noted: protein: recombinant;recombinant; tags: N-terminal GST removed by TEV;N-terminal GST removed by TEV; copies: 1;1; single strand.

In data set [9] the target is T8, Sub2 (a.a. 62-446) (S. cerevisiae, UniProt Q07478 62-446).
T8 construct: source: E. coli BL21-CodonPlus(DE3)-RIL, purified (glutathione sepharose, TEV, mono Q, Superdex 200); not shown: GST, N-terminal, cleaved
T8 sequence (looked up): T7 sequence 1
Nature of the data set: crystal structure; Sub2 (62-446), Yra1-C* and poly(U) 15-mer RNA mixed 1:1.2:1.2 with 2 mM MgCl2 and ADP•BeF3; sitting drop, 4 °C, 100 mM Bis-Tris pH 5.5, 20% PEG3350, 0.2 M ammonium acetate; 2.6 Å. The following applies: both partners purified.

Chain of THO core complex (THO*) (S. cerevisiae | S. bayanus) (P53552 whole entry, looked up, one chain of several): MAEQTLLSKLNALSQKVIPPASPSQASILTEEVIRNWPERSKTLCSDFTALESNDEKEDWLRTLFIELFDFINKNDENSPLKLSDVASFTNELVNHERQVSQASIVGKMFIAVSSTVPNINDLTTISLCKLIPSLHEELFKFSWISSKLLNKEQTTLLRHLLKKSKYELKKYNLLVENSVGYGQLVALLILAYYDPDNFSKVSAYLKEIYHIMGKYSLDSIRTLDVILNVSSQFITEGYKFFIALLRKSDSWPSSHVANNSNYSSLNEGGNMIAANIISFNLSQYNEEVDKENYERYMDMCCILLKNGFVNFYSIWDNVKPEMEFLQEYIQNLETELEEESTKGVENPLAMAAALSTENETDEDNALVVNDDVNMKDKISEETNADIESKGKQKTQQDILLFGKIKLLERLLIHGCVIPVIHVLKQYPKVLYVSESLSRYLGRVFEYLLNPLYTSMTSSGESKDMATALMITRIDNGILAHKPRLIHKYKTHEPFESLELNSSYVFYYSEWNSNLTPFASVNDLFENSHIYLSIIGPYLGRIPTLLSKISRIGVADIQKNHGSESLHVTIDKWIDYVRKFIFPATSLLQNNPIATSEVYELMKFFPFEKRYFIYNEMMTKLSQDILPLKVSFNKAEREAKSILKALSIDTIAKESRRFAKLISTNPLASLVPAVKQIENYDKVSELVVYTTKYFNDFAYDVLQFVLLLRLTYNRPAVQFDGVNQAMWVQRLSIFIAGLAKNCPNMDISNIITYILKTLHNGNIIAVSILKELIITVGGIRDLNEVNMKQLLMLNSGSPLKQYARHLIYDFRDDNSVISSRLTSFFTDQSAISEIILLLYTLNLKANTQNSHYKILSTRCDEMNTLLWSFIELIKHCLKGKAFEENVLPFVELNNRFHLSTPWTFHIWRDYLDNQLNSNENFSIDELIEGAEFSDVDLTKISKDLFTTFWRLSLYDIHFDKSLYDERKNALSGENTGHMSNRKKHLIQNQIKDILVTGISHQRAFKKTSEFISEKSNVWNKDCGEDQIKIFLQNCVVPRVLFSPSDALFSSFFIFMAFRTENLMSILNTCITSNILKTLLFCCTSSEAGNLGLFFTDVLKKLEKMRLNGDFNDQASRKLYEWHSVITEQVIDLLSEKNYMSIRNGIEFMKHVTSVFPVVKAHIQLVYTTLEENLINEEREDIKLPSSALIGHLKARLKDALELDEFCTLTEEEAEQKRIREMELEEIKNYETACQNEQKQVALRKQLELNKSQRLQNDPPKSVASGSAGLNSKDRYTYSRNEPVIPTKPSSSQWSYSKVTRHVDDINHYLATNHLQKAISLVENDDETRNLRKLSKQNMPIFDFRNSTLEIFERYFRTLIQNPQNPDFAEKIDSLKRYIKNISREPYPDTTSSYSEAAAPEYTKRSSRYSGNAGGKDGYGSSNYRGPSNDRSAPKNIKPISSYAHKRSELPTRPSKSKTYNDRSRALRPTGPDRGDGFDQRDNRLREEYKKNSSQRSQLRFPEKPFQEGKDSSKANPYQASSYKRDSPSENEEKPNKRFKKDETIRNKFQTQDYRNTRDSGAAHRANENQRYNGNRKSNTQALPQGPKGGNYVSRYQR

As to `Nc1ncnc2c1ncn2[C@@H]1O[C@H](COP(=O)(O)OP(=O)(O)OP(=O)(O)O)[C@@H](O)[C@H]1O` [ATP], the “NADH enzyme-coupled ATPase assay” value in data set [1] is “Sub2 ATPase activity (mole of ADP produced per second per mole of Sub2)”.

VKRGPNRKAAMAKSQNKPKREKPAKKSLEDLDKEMADYFEKK (domain or fragment, S. cerevisiae, UniProt Q12159 185-226, looked up) [C-terminal fragment of Yra1, Yra1-C (a.a. 185-226)]: the “stimulation of the Sub2 ATPase activity by Yra1-C (NADH-coupled ATPase assay, 2 μM Sub2, 10 μM Yra1, 10 μM poly(U) RNA, 37 °C)” value in data set [2] was about 2 fold.

B1: DEAD-box ATPase Sub2, full length (enzyme)
chain: T1 sequence (Q07478 1-446)
In turn, B1 returned a stimulation of the Sub2 ATPase activity by THO* (NADH-coupled ATPase assay, 2 μM Sub2, 2 μM THO, 10 μM poly(U) RNA, 37 °C) in data set [3] of 3.5 fold.

As to UUUUUUUUUUUUUUUUUUUU (ssRNA) [poly(U) 20-mer RNA], the binding result in data set [4] is on record as “no binding”; in [5], “binds”; in data set [6], “binds”; in data set [7], “binds”.

On to UUUUUUUUUUUUUUU (ssRNA) [poly(U) 15-mer RNA], for which the binding result in data set [8] was “binds”.

B2: truncated Yra1-C (Yra1-C*, a.a. 200-226) (domain or fragment, S. cerevisiae, UniProt Q12159 200-226, looked up)
chain: NKPKREKPAKKSLEDLDKEMADYFEKK
notes: source: E. coli BL21-CodonPlus(DE3)-RIL, purified (glutathione sepharose, TEV, mono S, Superdex 200); not shown: GST, N-terminal, cleaved
In the case of B2, the binding result in data set [9] is given as “binds”.
